The text below walks through data of patent US9958461B2, “Detection of protein to protein interactions” (THE GOVERNING COUNCIL OF THE UNIVERSITY OF TORONTO, priority 2013, dated 2018).

First the molecules themselves.
B1: STAP2 (protein, UniProt Q9UGK3 1-403, looked up)
Signal-transducing adaptor …: MASALRPPRVPKPKGVLPSHYYESFLEKKGPCDRDYKKFWAGLQGLTIYFYNSNRDFQHVEKLNLGAFEKLTDEIPWGSSRDPGTHFSLILRDQEIKFKVETLECREMWKGFILTVVELRVPTDLTLLPGHLYMMSEVLAKEEARRALETPSCFLKVSRLEAQLLLERYPECGNLLLRPSGDGADGVSVTTRQMHNGTHVVRHYKVKREGPKYVIDVEQPFSCTSLDAVVNYFVSHTKKALVPFLLDEDYEKVLGYVEADKENGENVWVAPSAPGPGPAPCTGGPKPLSPASSQDKLPPLPPLPNQEENYVTPIGDGPAVDYENQDVASSSWPVILKPKKLPKPPAKLPKPPVGPKPEPKVFNGGLGRKLPVSSAQPLFPTAGLADMTAELQKKLEKRRALEH
B2: CAV2 (protein, UniProt P51636 1-162, looked up)
Caveolin-2: MGLETEKADVQLFMDDDSYSHHSGLEYADPEKFADSDQDRDPHRLNSHLKLGFEDVIAEPVTTHSFDKVWICSHALFEISKYVMYKFLTVFLAIPLAFIAGILFATLSCLHIWILMPFVKTCLMVLPSVQTIWKSVTDVIIAPLCTSVGRCFSSVSLQLSQD
B3: DOK1 (protein, UniProt Q99704 1-481, looked up)
Docking protein 1: MDGAVMEGPLFLQSQRFGTKRWRKTWAVLYPASPHGVARLEFFDHKGSSSGGGRGSSRRLDCKVIRLAECVSVAPVTVETPPEPGATAFRLDTAQRSHLLAADAPSSAAWVQTLCRNAFPKGSWTLAPTDNPPKLSALEMLENSLYSPTWEGSQFWVTVQRTEAAERCGLHGSYVLRVEAERLTLLTVGAQSQILEPLLSWPYTLLRRYGRDKVMFSFEAGRRCPSGPGTFTFQTAQGNDIFQAVETAIHRQKAQGKAGQGHDVLRADSHEGEVAEGKLPSPPGPQELLDSPPALYAEPLDSLRIAPCPSQDSLYSDPLDSTSAQAGEGVQRKKPLYWDLYEHAQQQLLKAKLTDPKEDPIYDEPEGLAPVPPQGLYDLPREPKDAWWCQARVKEEGYELPYNPATDDYAVPPPRSTKPLLAPKPQGPAFPEPGTATGSGIKSHNSALYSQVQKSGASGSWDCGLSRVGTDKTGVKSEGST
B4: JUP (protein, UniProt P14923 1-745, looked up)
Junction plakoglobin: MEVMNLMEQPIKVTEWQQTYTYDSGIHSGANTCVPSVSSKGIMEEDEACGRQYTLKKTTTYTQGVPPSQGDLEYQMSTTARAKRVREAMCPGVSGEDSSLLLATQVEGQATNLQRLAEPSQLLKSAIVHLINYQDDAELATRALPELTKLLNDEDPVVVTKAAMIVNQLSKKEASRRALMGSPQLVAAVVRTMQNTSDLDTARCTTSILHNLSHHREGLLAIFKSGGIPALVRMLSSPVESVLFYAITTLHNLLLYQEGAKMAVRLADGLQKMVPLLNKNNPKFLAITTDCLQLLAYGNQESKLIILANGGPQALVQIMRNYSYEKLLWTTSRVLKVLSVCPSNKPAIVEAGGMQALGKHLTSNSPRLVQNCLWTLRNLSDVATKQEGLESVLKILVNQLSVDDVNVLTCATGTLSNLTCNNSKNKTLVTQNSGVEALIHAILRAGDKDDITEPAVCALRHLTSRHPEAEMAQNSVRLNYGIPAIVKLLNQPNQWPLVKATIGLIRNLALCPANHAPLQEAAVIPRLVQLLVKAHQDAQRHVAAGTQQPYTDGVRMEEIVEGCTGALHILARDPMNRMEIFRLNTIPLFVQLLYSSVENIQRVAAGVLCELAQDKEAADAIDAEGASAPLMELLHSRNEGTATYAAAVLFRISEDKNPDYRKRVSVELTNSLFKHDPAAWEAAQSMIPINEPYGDDMDATYRPMYSSDVPLDPLEMHMDMDGDYPIDTYSDGLRPPYPTADHMLA
B5: ITK (protein, UniProt Q08881 1-620, looked up)
Tyrosine-protein kinase …: MNNFILLEEQLIKKSQQKRRTSPSNFKVRFFVLTKASLAYFEDRHGKKRTLKGSIELSRIKCVEIVKSDISIPCHYKYPFQVVHDNYLLYVFAPDRESRQRWVLALKEETRNNNSLVPKYHPNFWMDGKWRCCSQLEKLATGCAQYDPTKNASKKPLPPTPEDNRRPLWEPEETVVIALYDYQTNDPQELALRRNEEYCLLDSSEIHWWRVQDRNGHEGYVPSSYLVEKSPNNLETYEWYNKSISRDKAEKLLLDTGKEGAFMVRDSRTAGTYTVSVFTKAVVSENNPCIKHYHIKETNDNPKRYYVAEKYVFDSIPLLINYHQHNGGGLVTRLRYPVCFGRQKAPVTAGLRYGKWVIDPSELTFVQEIGSGQFGLVHLGYWLNKDKVAIKTIREGAMSEEDFIEEAEVMMKLSHPKLVQLYGVCLEQAPICLVFEFMEHGCLSDYLRTQRGLFAAETLLGMCLDVCEGMAYLEEACVIHRDLAARNCLVGENQVIKVSDFGMTRFVLDDQYTSSTGTKFPVKWASPEVFSFSRYSSKSDVWSFGVLMWEVFSEGKIPYENRSNSEVVEDISTGFRLYKPRLASTHVYQIMNHCWKERPEDRPAFSRLLRQLAEIAESGL
B6: PTPN12 (protein, UniProt Q05209 1-780, looked up)
Tyrosine-protein phosphatase …: MEQVEILRKFIQRVQAMKSPDHNGEDNFARDFMRLRRLSTKYRTEKIYPTATGEKEENVKKNRYKDILPFDHSRVKLTLKTPSQDSDYINANFIKGVYGPKAYVATQGPLANTVIDFWRMIWEYNVVIIVMACREFEMGRKKCERYWPLYGEDPITFAPFKISCEDEQARTDYFIRTLLLEFQNESRRLYQFHYVNWPDHDVPSSFDSILDMISLMRKYQEHEDVPICIHCSAGCGRTGAICAIDYTWNLLKAGKIPEEFNVFNLIQEMRTQRHSAVQTKEQYELVHRAIAQLFEKQLQLYEIHGAQKIADGVNEINTENMVSSIEPEKQDSPPPKPPRTRSCLVEGDAKEEILQPPEPHPVPPILTPSPPSAFPTVTTVWQDNDRYHPKPVLHMVSSEQHSADLNRNYSKSTELPGKNESTIEQIDKKLERNLSFEIKKVPLQEGPKSFDGNTLLNRGHAIKIKSASPCIADKISKPQELSSDLNVGDTSQNSCVDCSVTQSNKVSVTPPEESQNSDTPPRPDRLPLDEKGHVTWSFHGPENAIPIPDLSEGNSSDINYQTRKTVSLTPSPTTQVETPDLVDHDNTSPLFRTPLSFTNPLHSDDSDSDERNSDGAVTQNKTNISTASATVSAATSTESISTRKVLPMSIARHNIAGTTHSGAEKDVDVSEDSPPPLPERTPESFVLASEHNTPVRSEWSELQSQERSEQKKSEGLITSENEKCDHPAGGIHYEMCIECPPTFSDKREQISENPTEATDIGFGNRCGKPKGPRDPPSEWT
B7: SLA (protein, UniProt Q13239 2-276, looked up)
Src-like-adapter: GNSMKSTPAPAERPLPNPEGLDSDFLAVLSDYPSPDISPPIFRRGEKLRVISDEGGWWKAISLSTGRESYIPGICVARVYHGWLFEGLGRDKAEELLQLPDTKVGSFMIRESETKKGFYSLSVRHRQVKHYRIFRLPNNWYYISPRLTFQCLEDLVNHYSEVADGLCCVLTTPCLTQSTAAPAVRASSSPVTLRQKTVDWRRVSRLQEDPEGTENPLGVDESLFSYGLRESIASYLSLTSEDNTSFDRKKKSISLMYGGSKRKSSFFSSPPYFED
B8: PTPN22 (protein, UniProt Q9Y2R2 1-807, looked up)
Tyrosine-protein phosphatase …: MDQREILQKFLDEAQSKKITKEEFANEFLKLKRQSTKYKADKTYPTTVAEKPKNIKKNRYKDILPYDYSRVELSLITSDEDSSYINANFIKGVYGPKAYIATQGPLSTTLLDFWRMIWEYSVLIIVMACMEYEMGKKKCERYWAEPGEMQLEFGPFSVSCEAEKRKSDYIIRTLKVKFNSETRTIYQFHYKNWPDHDVPSSIDPILELIWDVRCYQEDDSVPICIHCSAGCGRTGVICAIDYTWMLLKDGIIPENFSVFSLIREMRTQRPSLVQTQEQYELVYNAVLELFKRQMDVIRDKHSGTESQAKHCIPEKNHTLQADSYSPNLPKSTTKAAKMMNQQRTKMEIKESSSFDFRTSEISAKEELVLHPAKSSTSFDFLELNYSFDKNADTTMKWQTKAFPIVGEPLQKHQSLDLGSLLFEGCSNSKPVNAAGRYFNSKVPITRTKSTPFELIQQRETKEVDSKENFSYLESQPHDSCFVEMQAQKVMHVSSAELNYSLPYDSKHQIRNASNVKHHDSSALGVYSYIPLVENPYFSSWPPSGTSSKMSLDLPEKQDGTVFPSSLLPTSSTSLFSYYNSHDSLSLNSPTNISSLLNQESAVLATAPRIDDEIPPPLPVRTPESFIVVEEAGEFSPNVPKSLSSAVKVKIGTSLEWGGTSEPKKFDDSVILRPSKSVKLRSPKSELHQDRSSPPPPLPERTLESFFLADEDCMQAQSIETYSTSYPDTMENSTSSKQTLKTPGKSFTRSKSLKILRNMKKSICNSCPPNKPAESVQSNNSSSFLNFGFANRFSKPKGPRNPPPTWNI
B9: PRKCZ (protein, UniProt Q05513 1-592, looked up)
Protein kinase C zeta type: MPSRTGPKMEGSGGRVRLKAHYGGDIFITSVDAATTFEELCEEVRDMCRLHQQHPLTLKWVDSEGDPCTVSSQMELEEAFRLARQCRDEGLIIHVFPSTPEQPGLPCPGEDKSIYRRGARRWRKLYRANGHLFQAKRFNRRAYCGQCSERIWGLARQGYRCINCKLLVHKRCHGLVPLTCRKHMDSVMPSQEPPVDDKNEDADLPSEETDGIAYISSSRKHDSIKDDSEDLKPVIDGMDGIKISQGLGLQDFDLIRVIGRGSYAKVLLVRLKKNDQIYAMKVVKKELVHDDEDIDWVQTEKHVFEQASSNPFLVGLHSCFQTTSRLFLVIEYVNGGDLMFHMQRQRKLPEEHARFYAAEICIALNFLHERGIIYRDLKLDNVLLDADGHIKLTDYGMCKEGLGPGDTTSTFCGTPNYIAPEILRGEEYGFSVDWWALGVLMFEMMAGRSPFDIITDNPDMNTEDYLFQVILEKPIRIPRFLSVKASHVLKGFLNKDPKERLGCRPQTGFSDIKSHAFFRSIDWDLLEKKQALPPFQPQITDDYGLDNFDTQFTSEPVQLTPDDEDAIKRIDQSEFEGFEYINPLLLSTEESV

The target of the first test is T1, EGFR-L858R (Homo sapiens, UniProt P00533, L858R).
T1 construct: with the advantage of testing full-length integral membrane proteins; (GGGGS)2 linker-Cub (human ubiquitin aa 35-76)-GAL4(1-147)-mNFkB(364-550) (C); expressed in transfected cells
Nature of the test: MaMTH EGFR-interactor screen, lentiviral preys against EGFR-L858R bait (interaction score). The note with it: MaMTH interaction score of prey with EGFR-L858R bait. The format is cell-based. A digest of the protocol:
(§1)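 Interaction score is the luciferase fold-change versus averaged negative controls (Fabp5, Pex19, Pex7, GABBR2), with >1 called interacting. Luciferase was measured 24 h after triplicate bait transfection. This followed single-copy prey transduction (MOI ~0.3-0.4) of GAL4UAS-luciferase HEK293T cells and ≥48 h puromycin selection.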
Molecule B1 yielded an EGFR-L858R mean of 1.49.
The molecule B2 had an EGFR-L858R mean of 6.58.
Same read-out and setting: for B3 the value was 13.10.
For B4, the EGFR-L858R mean turned out to be 2.51.
In turn, B5 yielded an EGFR-L858R mean of 0.94.
On the same count and under the same terms, for B6 the value was 1.20; for B7, 1.16; for B8, 0.36.
The same measure, in the same setting: for B9 the value was 0.89.

A further test addresses T2, EGFR-Wt (Homo sapiens, UniProt P00533).
T2 construct: with the advantage of testing full-length integral membrane proteins; (GGGGS)2 linker-Cub (human ubiquitin aa 35-76)-GAL4(1-147)-mNFkB(364-550) (C); expressed in transfected cells
Nature of the test: MaMTH EGFR-interactor screen, lentiviral preys against EGFR-wildtype bait (interaction score). It is filed as cell-based. The settings on record: MaMTH interaction score of prey with EGFR-Wt bait, mean. The procedure, abridged:
as §1
In the case of B1, the EGFR-Wt mean is on record as 2.76.
Regarding B2, the EGFR-Wt mean came to 2.57.
The molecule B3 returned an EGFR-Wt mean of 5.17.
In turn, B4 yielded an EGFR-Wt mean of 0.98.
Same read-out and setting: for B5 the value was 2.21; for B6, 2.64; for B7, 2.78.
B8 came in with an EGFR-Wt mean of 2.99.
The same measure, in the same setting: in the case of B9 it was 2.49.

The subject of the next test is EGFR-Wt. Described as above. It is filed as cell-based, human. The note with it: ratio of EGFR-Wt mean to EGFR-L858R mean interaction score. The procedure, abridged: as §1
Regarding B1, the Wt/L858R was 1.86.
Still for that read-out and setting: in the case of B2 it was 0.39; in that of B3, 0.39.
Same read-out and setting: for B4 the value was 0.39; for B5, 2.35; for B6, 2.20.
Same read-out and setting: for B7 the value was 2.40; for B8, 8.23.
B9: the Wt/L858R amounted to 2.79.
